Laboratory results from publication PMC11279866, “Synthesis, Radiolabeling, and Biodistribution Study of a Novel DOTA-Peptide for Targeting Vascular Endothelial Growth Factor Receptors in the Molecular Imaging of Breast Cancer” (Pharmaceutics, 2024).
Read-outs that look alike come from different tables or passages of the source. Where a SMILES comes first, the peptide text is derived from it. Bridges are numbered along the chain shown (N, C = ends). The star is where a group is joined. DOTA = O=C(O)CN1CCN(CC(=O)O)CCN(CC(=O)*)CCN(CC(=O)O)CC1; Ahx = NCCCCCC(=O)O

Columns and labels:
[1] = system: 4T1 cells; format: binding, mouse BALB/c
Description: (§1) The 4T1 cell line was acquired from the Pasteur Institute of Iran (4T1 is a breast cancer cell line derived from the mammary gland tissue of a mouse BALB/c. (NCBICode: C604/the Pasteur Institute/Tehran/Iran). 4T1 cells are epithelial and can overexpress VEGFRs). The cells were cultured at 37 °C with 5% CO2 in Dulbecco’s modified Eagle’s medium (Gibco, Life Technologies, Carlsbad, CA, USA) supplemented with 10% fetal bovine serum (Gibco) and 1% antibiotics (penicillin and streptomycin). To develop tumor-bearing mice models, Balb/C mice (female, 6–8-week-old, 20–25 g) were purchased from the Institute of Biochemistry and Biophysics (IBB) (University of Tehran, Iran) and kept under the controlled conditions of temperature, humidity, and light/dark cycles with appropriate food and water (approved by the ethics committee of TUMS). Initially, the cells were harvested from the culture flask surface by 10 mM EDTA and centrifuged. After resuspending in serum-free culture medium, 1 × 10^6 cells/100 μL were injected subcutaneously into the right shoulder of mice. In the next 10 days, the tumor size was ready to use for imaging and biodistribution studies with a volume of […] [54].
A competitive binding assay was conducted to determine the value of 50% inhibitory concentration (IC50) for the [^68Ga]Ga-DOTA-Ahx-peptide, using the non-radiolabeled peptide as a competitor. […]

[2] = n-octanol/water partition coefficient (log p); format: physicochemical; conditions: shake-flask n-octanol/water; 100 μL radiopeptide in 0.99 mL water + 1 mL n-octanol; vortex 5 min, room temperature; centrifugation 10 min 5000 rpm; radioactivity read-out; mean ± SD (n = 3)
Description: A total of 100 μL of the radiolabeled peptide was aliquoted into vials containing 0.99 mL of water and 1 mL of n-octanol, which was then mixed by a vortex mixer (Mabnagene, Tehran, Iran) at room temperature for 5 min. Aqueous and organic layers were separated by centrifugation (10 min, 5000 rpm). Then, 500 μL aliquots of each layer were transferred to the new vials, and the radioactivity of both was measured in a dose calibrator (Capintec CRC®-25, Florham Park, NJ, USA).
The lipid–water partition coefficient for the [^68Ga]Ga-DOTA-Ahx-peptide was estimated in the n-octanol water system, using a […]. Approximately, the log p value was −2.17 ± 0.072, considering the below formula (Equation (2)). The result is reported as mean ± SD (n = 3). […] (2) […]

[3] = Ex vivo biodistribution in normal BALB/c mice; conditions: mouse, total radioactivity, mean ± SD (n = 3); for tissue uptake / tissue uptake at 0.5 h: iv, 840 kBq; for tissue uptake: healthy tissues, time point not stated; for tissue uptake at 0.5 h: normal mice
Description: (§2) The biodistribution of [^68Ga]Ga-DOTA-Ahx-peptide was evaluated in normal and tumor-bearing BALB/c mice. Therefore, 840 kBq in 100 μL saline was injected via the caudal vein of the mice. The animal was euthanized at different time points of 15, 30, 60, and 90 min post-injection using ketamine and xylazine in lethal doses. First, the blood sample was taken from the heart, and then organs (heart, kidney, liver, lungs, etc.) were removed. Tissues were rinsed and weighed, and the radioactivity of each organ was measured using a gamma counter. The organ uptake can be reported as the percentage of injected dose per gram of tissue (ID%/g). A 500-fold excess of DOTA-Ahx-ECRPPDDGLC was used 30 min before radiolabeled peptide injection for the blocking experiment.
Comparative biodistribution studies were conducted in healthy (Figure 7a) and subcutaneously (s.c) tumor-bearing mice (Figure 7b). […] Relatively high uptake was also observed in healthy tissues such as the spleen and intestine (3.7 ± 0.29%ID/g and 5.07 ± 0.21%ID/g, respectively). At 30 min, the highest accumulation of the radioactive compound was measured in the kidneys, which was 9.2 ± 0.53%ID/g and increased over time up to 90 min. Considering kidney uptake, this tracer is excreted mainly from this organ. The distribution profile of the [^68Ga]Ga-DOTA-Ahx-peptide in tumor-bearing mice had some similarity to the normal mice. Kidneys in tumor-bearing mice were also the critical organ with the highest radioactivity concentration at different time points (5.62 ± 0.31%ID/g at 30 min and 6.35 ± 0.54%ID/g at 90 min). This increasing profile has confirmed the quick washing-out of important organs such as the heart, lungs, liver, stomach, and intestine, which had relatively high radioactivity uptake. […] The maximum tumor uptake was 30 min after injection (1.51 ± 0.22%ID/g) and decreased by 90 min.
Figure 7 The biodistribution of the [^68Ga]Ga-DOTA-Ahx-peptide in (a) normal and (b) tumor-bearing BALB/c mice. The data are described as %ID/g, calculated at 30, 60, and 90 min after injection. The results are reported as mean ± SD (n = 3). (c) Tumor-to-organ ratio at 30, 60, and 90 min after IV injection. The uptake profile of (d) blood, (e) muscle, (f) liver, and (g) kidneys in comparison with the tumor from 15 to 90 min.

[4] = Ex vivo biodistribution in 4T1 tumor-bearing BALB/c mice, with blocking experiment; conditions: female, mouse, total radioactivity, mean ± SD (n = 3); for tissue uptake at 0.5 h: 30 min p.i.; for tissue uptake at 1.5 h: 90 min p.i.
Description: as §1, §2
Comparative biodistribution studies were conducted in healthy (Figure 7a) and subcutaneously (s.c) tumor-bearing mice (Figure 7b). […] At 30 min, the highest accumulation of the radioactive compound was measured in the kidneys, which was 9.2 ± 0.53%ID/g and increased over time up to 90 min. […] Kidneys in tumor-bearing mice were also the critical organ with the highest radioactivity concentration at different time points (5.62 ± 0.31%ID/g at 30 min and 6.35 ± 0.54%ID/g at 90 min). This increasing profile has confirmed the quick washing-out of important organs such as the heart, lungs, liver, stomach, and intestine, which had relatively high radioactivity uptake. […]
Figure 7 The biodistribution of the [^68Ga]Ga-DOTA-Ahx-peptide in (a) normal and (b) tumor-bearing BALB/c mice. The data are described as %ID/g, calculated at 30, 60, and 90 min after injection. […]

[5] = blood, IV 840 kBq, read-out: blood uptake
[6] = kidney, iv, 840 kBq, read-out: kidney uptake

For CC(C)C[C@@H]1NC(=O)CNC(=O)[C@H](CC(=O)O)NC(=O)[C@H](CC(=O)O)NC(=O)[C@@H]2CCCN2C(=O)[C@@H]2CCCN2C(=O)[C@H](CCCNC(=N)N)NC(=O)[C@@H](NC(=O)[C@H](CCC(=O)O)NC(=O)CCCCCNC(=O)CN2CCN(CC(=O)O)CCN(CC(=O)O)CCN(CC(=O)O)CC2)CSSC[C@@H](C(=O)O)NC1=O [[^68Ga]Ga-DOTA-Ahx-VGB3, metal not drawn] ({DOTA-Ahx}-ECRPPDDGLC-OH; disulfide 2-10), the IC50 [1] was about 867 nM, the “log p (n-octanol/water partition coefficient)” value [2] was about −2.17 ± 0.072 and the tissue uptake at 1.5 h ([3]; blood, healthy mice, 90 min p.i., IV 840 kBq) was 0.32 ± 0.036 %ID/g. It also gave a tissue uptake ([3]; intestine, read-out: intestine uptake) of 5.07 ± 0.21 %ID/g, a tissue uptake at 0.5 h ([3]; kidney, 30 min p.i., read-out: kidney uptake) of 9.2 ± 0.53 %ID/g and a tissue uptake at 0.5 h ([3]; liver, 30 p.i., read-out: liver uptake (maximum)) of 4.41 ± 0.56 %ID/g. For the same compound, the tissue uptake ([3]; spleen, read-out: spleen uptake) was 3.7 ± 0.29 %ID/g, the tissue uptake at 0.5 h [4, 5] was 1.4 ± 0.18 %ID/g and the tissue uptake at 1.5 h [4, 5] was 0.22 ± 0.06 %ID/g. For the same compound, the tissue uptake at 0.5 h [4, 6] was 5.62 ± 0.31 %ID/g and the tissue uptake at 1.5 h [4, 6] was 6.35 ± 0.54 %ID/g.
